Earlier results in publication PMC4496705.

Tests used:
[1] = target: hPrp4 peptide (Homo sapiens) (UniProt O43172); test: ITC
SKIP (Homo sapiens) = SKIP (Homo sapiens) (UniProt Q13573); test: SPR
Sequence of UniProt Q13573 (Q13573 2-536): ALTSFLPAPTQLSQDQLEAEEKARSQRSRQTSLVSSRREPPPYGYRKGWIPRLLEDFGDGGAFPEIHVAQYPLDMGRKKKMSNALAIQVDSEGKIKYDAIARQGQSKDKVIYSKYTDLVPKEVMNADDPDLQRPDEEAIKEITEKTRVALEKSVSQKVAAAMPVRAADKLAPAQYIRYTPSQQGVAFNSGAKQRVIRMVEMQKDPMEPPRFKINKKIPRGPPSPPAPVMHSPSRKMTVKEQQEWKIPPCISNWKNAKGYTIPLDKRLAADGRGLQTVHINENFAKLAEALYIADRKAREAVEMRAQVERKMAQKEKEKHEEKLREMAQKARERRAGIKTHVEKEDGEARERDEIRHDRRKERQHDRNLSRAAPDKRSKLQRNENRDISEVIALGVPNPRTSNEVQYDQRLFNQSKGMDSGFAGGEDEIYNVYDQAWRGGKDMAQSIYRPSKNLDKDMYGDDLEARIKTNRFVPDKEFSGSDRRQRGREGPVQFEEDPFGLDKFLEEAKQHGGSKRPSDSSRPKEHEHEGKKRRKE

Sequence of UniProt O43172 (O43172 whole entry): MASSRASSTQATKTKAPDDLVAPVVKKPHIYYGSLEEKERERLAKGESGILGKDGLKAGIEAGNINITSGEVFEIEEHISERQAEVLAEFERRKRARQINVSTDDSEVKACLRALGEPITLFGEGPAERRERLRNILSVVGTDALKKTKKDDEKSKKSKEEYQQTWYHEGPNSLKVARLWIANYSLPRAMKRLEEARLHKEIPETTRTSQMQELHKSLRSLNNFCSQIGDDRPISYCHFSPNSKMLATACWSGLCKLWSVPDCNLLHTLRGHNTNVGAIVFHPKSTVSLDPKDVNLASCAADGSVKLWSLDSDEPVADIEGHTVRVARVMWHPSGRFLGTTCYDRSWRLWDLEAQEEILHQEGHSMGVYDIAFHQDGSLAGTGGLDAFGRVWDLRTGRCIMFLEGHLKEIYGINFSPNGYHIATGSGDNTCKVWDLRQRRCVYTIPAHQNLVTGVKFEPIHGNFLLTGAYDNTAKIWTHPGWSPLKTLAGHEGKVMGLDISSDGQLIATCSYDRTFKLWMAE

Kd [1]	Kd (SKIP (Homo sapiens))	Substance
1970 nM		PPIH (from UniProt O43447)
	125 nM	PPIL1 (from UniProt Q9Y3C6)
